B1: LDLR-PPRE(WT) biotin probe (dsDNA)
DNA 1: TCTCTGTGGCTTAGGGGTTCAAGTTCAACTGTGAAAGCCC
DNA 2: GGGCTTTCACAGTTGAACTTGAACCCCTAAGCCACAGAGA
B2: LDLR-PPRE(WT) unlabeled competitor (dsDNA)
DNA 1: B1 DNA 1
DNA 2: B1 DNA 2

Key:
[1] = target: T1, PPARδ;RXRα (Homo sapiens;Homo sapiens?, UniProt Q03181;P19793 1-441;1-462, |); assay: EMSA
[2] = target: T1, PPARδ;RXRα; assay: competition

T1 sequence (Q03181 whole entry, stated change not applied, chain 1 of 2): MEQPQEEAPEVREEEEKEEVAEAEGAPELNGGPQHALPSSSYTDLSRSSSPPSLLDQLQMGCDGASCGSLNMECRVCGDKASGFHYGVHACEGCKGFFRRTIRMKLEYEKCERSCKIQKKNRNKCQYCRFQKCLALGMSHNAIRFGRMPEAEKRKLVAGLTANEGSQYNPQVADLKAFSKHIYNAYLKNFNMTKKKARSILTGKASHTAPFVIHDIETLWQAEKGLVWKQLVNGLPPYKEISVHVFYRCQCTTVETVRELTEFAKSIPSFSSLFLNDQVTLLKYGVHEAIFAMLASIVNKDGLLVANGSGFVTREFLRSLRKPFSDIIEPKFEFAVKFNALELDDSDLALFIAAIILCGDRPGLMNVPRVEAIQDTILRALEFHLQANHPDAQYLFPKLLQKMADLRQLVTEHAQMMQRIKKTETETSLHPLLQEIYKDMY
T1 sequence (P19793 whole entry, stated change not applied, chain 2 of 2): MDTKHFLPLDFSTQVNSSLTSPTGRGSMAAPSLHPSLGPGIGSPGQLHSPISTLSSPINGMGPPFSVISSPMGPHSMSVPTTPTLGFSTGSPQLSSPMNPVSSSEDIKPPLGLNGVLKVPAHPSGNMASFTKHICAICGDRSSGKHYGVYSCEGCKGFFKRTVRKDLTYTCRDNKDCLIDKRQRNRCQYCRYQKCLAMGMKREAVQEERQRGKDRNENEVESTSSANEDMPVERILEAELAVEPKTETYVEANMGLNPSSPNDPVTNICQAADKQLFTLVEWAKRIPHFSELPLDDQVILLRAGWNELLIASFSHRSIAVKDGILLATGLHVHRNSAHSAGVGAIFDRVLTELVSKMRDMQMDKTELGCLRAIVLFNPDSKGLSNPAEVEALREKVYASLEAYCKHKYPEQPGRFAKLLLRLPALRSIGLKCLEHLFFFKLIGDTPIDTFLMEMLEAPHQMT

Row | Binder | binding result [1] | binding result [2]
1 | B1 | binds | –
2 | B2 | – | binds

— publication PMC4894720
